Measured values from patent US6723702B2, “Use of relaxin treat diseases related to vasoconstriction” (RAS Medical, Inc., priority 2000, dated 2004).

Tests used:
[1] = Serum rhRLX, quantitative sandwich immunoassay (Example 1); type: in vivo, rat; details: osmotic minipump 4 μg/hour for 5 days, 17 rats, mean±SEM
Procedure: One milliliter of blood was obtained from the rats administered rhRLX for 5 days at the end of the renal function measurements. The levels of rhRLX in serum were then measured in a quantitative sandwich immunoassay. Unemori et al. (1996) J. Clin. Invest. 98:2739-2745. Briefly, wells of a 96-well microtiter plate (Maxisorp Immunomodules, Nunc, Inc., Naperville, Ill.) were coated overnight with affinity purified anti-rhRLX rabbit polyclonal antibody. Sera were diluted in phosphate buffered saline containing Tween 20, Thimerosal, bovine serum albumin (Sigma Chemical Co., St. Louis, Mo.) and normal goat IgG (Organon Teknika-Cappel, Durham, N.C.), and 100 μl were added to wells in duplicate. […] After an appropriate incubation period at room temperature, the wells were washed again, and 100 μl of a tetramethylbenzidine solution was added to each well. After color development, the reaction was stopped, absorbances at 450/630 nm were measured, and relaxin concentrations in the sera were determined by entering data into a four-parameter logistic curve-fitting program.

[2] = system: rat VEGF164, VEGF120 and bFGF mRNA in peri-infarct area of rat hearts; assay: Rat myocardial infarct (LCAL) model: quantitative RT-PCR of VEGF and bFGF; type: in vivo
Procedure: Female Sprague Dawley rats, approximately 12-weeks of age were used. Rats were anesthetized by intraperitoneal (i.p.) injection of up to 1 ml/kg ketamine/medetomidine (6:4). Following exteriorization of the heart, the left coronary artery was ligated near its origin with a silk suture. In sham surgery control animals, the suture was placed superficially into the muscle adjacent to the coronary artery. Post-closure EKG's were monitored for S-T segment elevation in LCAL animals to confirm the outcome of ligation. Immediately following cardiac surgery, a primed mini-osmotic pump containing relaxin or vehicle (20 mM acetate, pH 5.0) was aseptically implanted into a subcutaneous (s.c.) pocket on the dorsal interscapular region. Vehicle or relaxin (0.1 mg/kg/day) was delivered as a continuous s.c. infusion for 7 or 21 days to either sham or LCAL animals. Animals were terminated on day 7 or 21, and the peri-infarct regions anterior to the scar in the left ventricle, or equivalent sites on sham surgery animals were harvested.
The left coronary artery ligation (LCAL) model of myocardial ischemia in the rat (Selye et al. (1960) Angiology 11:398-407) caused profound, acute damage, involving up to 50% of the left ventricular free wall. Following systemic relaxin treatment, using rhRLX, tissue RNA was examined at 7 and 21 days post-infarction for persistent changes in VEGF and bFGF. Cells in the immediate margins surrounding the infarct were sampled to assess angiogenic cytokine expression, using quantitative RT-PCR analysis. Oligonucleotide primers and TaqMan probes, shown in Table 8, were purchased from BioSource International Inc.(Camarillo, Calif.), or PE Applied Biosystems for use with the ABI Prism^7 7700 Sequence Detection System (quantitative PCR) (PE Applied Biosystems).
Oligonucleotides were designed to rat or human bFGF, human VEGF165 amino acid or 121 amino acid isoforms, and their respective rat homologues (VEGF164 and VEGF120), and human HGF (for use with the PE Applied Biosystems “GeneAmp PCR System 9600”). Rat and human GAPDH primers and probes were purchased from BioSource International Inc. and PE Applied Biosystems, respectively. Tissue samples and monolayer cells were suspended in RNA STAT-60 (Tel-Test, Inc., Friendswood, Tex.) and processed following vendor instructions. Reverse transcription-polymerase chain reaction (RT-PCR) was performed using either rat or human total RNA as template. 150 ng of total RNA was used for the analysis of VEGF, bFGF and HGF mRNA expression; 10 ng of total RNA was used for GAPDH mRNA expression. Reverse transcription-polymerase chain reaction (RT-PCR) reagents were purchased from PE Biosystems (Foster City, Calif.).
RNA was extracted from peri-infarct regions of rat hearts following LCAL or an analogous area of sham hearts. […]

[3] = Relaxin ELISA in serum (Example 5); type: in vivo, rat; details: day 10
Text: The pulmonary artery trunk, right and left extrapulmonary branches were removed en bloc, cleaned of surrounding tissue, and weighed. The left lung was and excised and the entire hilar artery dissected from parenchyma and weighed (Tozzi et al. (1994) Am. J. Respir. Crit. Care Med. 149:1316-1326). Segments were hydrolyzed, and total hydroxyproline and protein determined (Poiani et al. (1990) Circ. Res. 66:968-978). Approximately 3 cc of whole blood was centrifuged, serum aspirated, and sample frozen at −20° C. for determination of rRlx levels by ELISA assay.
Levels of relaxin in serum were measured in a quantitative sandwich immunoassay, as previously described (Unemori et al. (1996) J. Clin. Invest. 98:2739-2745).

rhRLX: recombinant human relaxin, identical in amino acid sequence to the product of the human H2 gene; A chain of 24, B chain of 29 amino acids
serum concentration of rhRLX [1]: 28.1 ± 4.8 ng/mL
increase in peri-infarct bFGF expression (mRNA) ([2]; 0.1 mg/kg/day s.c., both 7 and 21 days, vs vehicle-treated infarcted hearts): 2 fold
relative expression of either VEGF isoform, peri-infarct regions ([2]; 0.1 mg/kg/day, day 7): no changes
relative levels of VEGF164 and VEGF120 transcripts ([2]; 0.1 mg/kg/day, day 21): trend towards an increase
VEGF or bFGF mRNA expression ([2]; sham surgery animals): no effect
rRlx serum levels ([3]; 1 mg-air (low rhRlx-air)): 2.9 ± 1.0 ng/mL
rRlx serum levels ([3]; 1 mg-hyp (low rhRlx-hyp)): 3.2 ± 0.4 ng/mL
rRlx serum levels ([3]; 5 mg-air (hi rhRlx-air)): 9.9 ± 2.8 ng/mL
rRlx serum levels ([3]; 5 mg-hyp (hi rhRlx-hyp)): 11.5 ± 2.5 ng/mL
